The values that follow come from US20190135888A1 (Harvard, published 2019).

Sequences and labels used below:
B1: GCGR extracellular domain (GCGR-ecd) (receptor, UniProt P47871 26-136, looked up)
chain: AQVMDFLFEKWKLYGDQCHHNLSLLPPPTELVCNRTFDKYSCWPDTPANTTANISCPWYLPWHHKVQHRFVFKRCGPDGQWVRGPRGQPWRDASQCQMDGEEIEVQKEVAK
notes: extracellular domain; also called glucagon receptor extracellular domain; not shown: Hexahistidine and WELQ protease site added during cloning; MST was run with tag and with
B2: human aP2 (fatty acid-binding protein, adipocyte, FABP4/aP2, Homo sapiens) (other)
chain: CDAFVGTWKLVSSENFDDYMKEVGVGFATRKVAGMAKPNMIISVNGDVITIKSESTFKNTEISFILGQEFDEVTADDRKVKSTITLDGGVLVHVQKWDGKSTTIKRKREDDKLVVECVMKGVTSTRVYERA
notes: Biotinylated with Sulfo-NHS-LC-Biotin for the Octet cross-reactivity assay; also called haP2; hFABP4

Experiment [1] has as its target glucagon/aP2 complex (glucagon plus aP2, Example 1) (Mus musculus (Mouse), UniProt P04117 1-132, limits assumed). Briefly: BLI (BLItz): GCGR-ecd on biotin-glucagon immobilized on streptavidin sensors, in the presence of aP2.
Experiment [2] deals with T1, glucagon.
T1 construct: This id is also used for the endogenous glucagon of mouse serum; also called biotin-glucagon; biotinylated glucagon
Briefly: binding curve, Response (ΔFnorm [‰]) against Ligand Concentration [nM]; table under the plot.

Experiment [3] deals with T1, glucagon. As to the kind of experiment: binding curve, Response (ΔFnorm [‰]) against Ligand Concentration [nM]; the table under the plot has no unit, nM is that of the axis; paragraph 390 names an Octet system; which partner is titrated is not given. On the technique in general: BLI is a label-free optical method that tracks binding on a fibre tip over time.
The target in experiment [4] is B1. Briefly: binding curve, Response (ΔFnorm [‰]) against Ligand Concentration [nM]; table under the plot.
Experiment [5] deals with B1. As to the kind of experiment: binding curve, Response (ΔFnorm [‰]) against Ligand Concentration [nM]; the table under the plot has no unit, nM is that of the axis; paragraph 390 names an Octet system; which partner is titrated is not given.
The target of experiment [6] is T2, hFABP5/hMal1 (recombinant human FABP5, Sino Biological Inc.) (human, UniProt Q01469 1-135, limits assumed).
T2 construct: Biotinylated with Sulfo-NHS-LC-Biotin and loaded on streptavidin biosensors; also called FABP5/Mal1; Mal1/FABP5
Briefly: Octet RED384, biotinylated human FABP on streptavidin biosensors, antibody at 800 nM. How it is done: The recombinant human proteins aP2 (generated at UCB in E. coli (see method below)), hFABP3 (Sino Biological Inc.) and hFABP5/hMall (Sino Biological Inc.) were biotinylated in a 5-fold molar excess of EZ-Link® Sulfo-NHS-LC-Biotin (Thermo Fisher Scientific) and purified from unbound biotin using a Zeba desalting column (Thermo Fisher Scientific). All binding studies were performed at 25° C. using a ForteBio Octet RED384 system (Pall ForteBio Corp.). […] Biosensors were then transferred back to PBS-T for 5 min. to measure dissociation. Non-specific binding of antibodies was monitored using unloaded biosensor tips.

Experiment [7] has as its target B2. Briefly: Biacore T200, anti-aP2 IgG captured on anti-mouse IgG Fc, aP2 titrated over it; steady-state fit for CA33.

T1 sequence (peptide, as listed by the source): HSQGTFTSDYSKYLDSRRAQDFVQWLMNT
T2 sequence (Q01469 whole entry): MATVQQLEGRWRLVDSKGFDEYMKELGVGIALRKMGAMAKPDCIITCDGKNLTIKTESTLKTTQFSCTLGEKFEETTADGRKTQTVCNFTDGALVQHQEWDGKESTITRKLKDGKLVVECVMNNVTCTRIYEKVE

The Kd is the free concentration of one partner at which half of the binding sites on the other are occupied at equilibrium, for simple one-to-one binding. For B1, the Kd in experiment [1] amounted to 54.1 nM. In general, EC50 refers to the concentration needed to bring the measured effect to its halfway point. Low values mean an effect from little substance, high ones a need for much substance. In the experiment with glucagon [2], B2 returned a logEC50 of 1.31. For the same molecule, it took 20.3 nM to reach a half-maximal effect in the experiment with glucagon [3] (EC50).

B3: aP2 (recombinant aP2 of Example 1) (other)
chain: MCDAFVGTWKLVSSENFDDYMKEVGVGFATRKVAGMAKPNMIISVNGDLVTIRSESTFKNTEISFKLGVEFDEITADDRKVKSIITLDGGALVQVQKWDGKSTTIKRKRDGDKLVVECVMKGVTSTRVYERA
notes: Used unlabelled, and amine-biotinylated in the scintillation proximity assay; also called FABP4
Take B3: the logEC50 in experiment [4] amounted to 2.51. Also, in experiment [5], the half-maximal effective concentration (EC50) came to 327 nM.

B4: CA33 (Rabbit Ab 909) (antibody, V domains shown)
VH: QSVEESGGRLVTPGTPLTLTCTVSGFSLSTYYMSWVRQAPGKGLEWIGIIYPSGSTYCASWAKGRFTISKASTTVDLKITSPTTEDTATYFCARPDNDGTSGYLSGFGLWGQGTLVTVSS
VL: DVVMTQTPASVSEPVGGTVTIKCQASEDISRYLVWYQQKPGQPPKRLIYKASTLASGVPSRFKGSGSGTDFTLTISDLECDDAATYYCQCTYGTYAGSFFYSFGGGTEVVVE
notes: Rabbit variable regions; also called Rabbit Antibody 909; antibody 909
Consider B4, for which, in experiment [6], the binding result is on record as “no binding (tested: 800 nM)”. Moreover, the Kd in experiment [7] was 2830 nM.
